Results taken from US12281181.
Numbered stars: 1 amine (or outer) side, 2 acyl side, 3 side chain; on linkers, the order of the positions; unused ones are H or OH. Bridge positions count the residues as written; N and C are the ends. Square brackets hold non-standard residues; d marks the D form. Ends that are not written are not given here. Trimesoyl = O=C(c1cc(C(=O)[*:2])cc(C(=O)[*:3])c1)[*:1]; 2Nal = N[C@@H](Cc1ccc2ccccc2c1)C(=O)O; Dap = NC[C@H](N)C(=O)O; βAla = NCCC(=O)O

B1: peptide 7 (peptide)
peptide: GWIYA[Dap]F[2Nal]R[dR]R[Dap][βAla][βAla]K
modifications: linker N-6-12 via Trimesoyl; not fully specified (N-terminus); printed as Tm(GWIYA)Δ(FΦRrRΔ)-BBK
B2: peptide 21 (peptide)
peptide: GAAAA[Dap]F[2Nal]R[dR]R[Dap][βAla][βAla]K
modifications: linker (positions not given here) via trimesic acid; not fully specified (bridges); printed as Tm(GAAAA)Δ(FΦRrRΔ)-BBK
B3: peptide 20 (peptide)
peptide: GAIAA[Dap]F[2Nal]R[dR]R[Dap][βAla][βAla]K
modifications: linker (positions not given here) via trimesic acid; not fully specified (bridges); printed as Tm(GAIAA)Δ(FΦRrRΔ)-BBK
B4: fluorescently labeled peptide 7 (peptide)
peptide: GWIYA[Dap]F[2Nal]R[dR]R[Dap][βAla][βAla]K
modifications: linker (positions not given here) via trimesic acid; not fully specified (bridges); printed as Tm(GWIYA)Δ(FΦRrRΔ)-BBK; also: FITC label, site not given here
B5: peptide 12 (peptide)
peptide: GAIYA[Dap]F[2Nal]R[dR]R[Dap][βAla][βAla]K
modifications: linker (positions not given here) via trimesic acid; not fully specified (bridges); printed as Tm(GAIYA)Δ(FΦRrRΔ)-BBK
B6: peptide 13 (peptide)
peptide: GWAYA[Dap]F[2Nal]R[dR]R[Dap][βAla][βAla]K
modifications: linker (positions not given here) via trimesic acid; not fully specified (bridges); printed as Tm(GWAYA)Δ(FΦRrRΔ)-BBK
B7: peptide 2 (peptide)
peptide: GWIY[Dap]F[2Nal]RRR[Dap][βAla][βAla]K
modifications: linker (positions not given here) via trimesic acid; not fully specified (bridges); printed as Tm(GWIY)Δ(FΦRRRΔ)-BBK
B8: peptide 10 (peptide)
peptide: [dA]GWIY[Dap]F[2Nal]R[dR]R[Dap][βAla][βAla]K
modifications: linker (positions not given here) via trimesic acid; not fully specified (bridges); printed as Tm(aGWIY)Δ(FΦRrRΔ)-BBK
B9: peptide 18 (peptide)
peptide: GWIYA[Dap]F[2Nal]R[dA]R[Dap][βAla][βAla]K
modifications: linker (positions not given here) via trimesic acid; not fully specified (bridges); printed as Tm(GWIYA)Δ(FΦRaRΔ)-BBK
B10: peptide 3 (peptide)
peptide: GWIY[Dap]F[2Nal]RRRR[Dap][βAla][βAla]K
modifications: linker (positions not given here) via trimesic acid; not fully specified (bridges); printed as Tm(GWIY)Δ(FΦRRRRΔ)-BBK
B11: peptide 15 (peptide)
peptide: GWIYA[Dap]A[2Nal]R[dR]R[Dap][βAla][βAla]K
modifications: linker (positions not given here) via trimesic acid; not fully specified (bridges); printed as Tm(GWIYA)Δ(AΦRrRΔ)-BBK
B12: peptide 16 (peptide)
peptide: GWIYA[Dap]FAR[dR]R[Dap][βAla][βAla]K
modifications: linker N-6-12 via Trimesoyl; not fully specified (N-terminus); printed as Tm(GWIYA)Δ(FARrRΔ)-BBK
notes: Alanine-scan variant of peptide 7
B13: peptide 4 (peptide)
peptide: GWIY[Dap]F[2Nal]RRR[Dap]R[βAla]K
modifications: linker N-5-11 via Trimesoyl; not fully specified (N-terminus); printed as Tm(GWIY)Δ(FΦRRRA)-RBK
notes: Bicyclic peptide; 4th arginine outside the B ring
B14: peptide 17 (peptide)
peptide: GWIYA[Dap]F[2Nal]A[dR]R[Dap][βAla][βAla]K
modifications: linker (positions not given here) via trimesic acid; not fully specified (bridges); printed as Tm(GWIYA)Δ(FΦArRΔ)-BBK
B15: peptide 19 (peptide)
peptide: GWIYA[Dap]F[2Nal]R[dR]A[Dap][βAla][βAla]K
modifications: linker (positions not given here) via trimesic acid; not fully specified (bridges); printed as Tm(GWIYA)Δ(FΦRrAΔ)-BBK
B16: peptide 6 (peptide)
peptide: GWIY[Dap]F[2Nal]R[dR]R[Dap][βAla][βAla]K
modifications: linker (positions not given here) via trimesic acid; not fully specified (bridges); printed as Tm(GWIY)Δ(FΦRrRΔ)-BBK
B17: peptide 11 (peptide)
peptide: AWIYA[Dap]F[2Nal]R[dR]R[Dap][βAla][βAla]K
modifications: linker (positions not given here) via trimesic acid; not fully specified (bridges); printed as Tm(AWIYA)Δ(FΦRrRΔ)-BBK
B18: peptide 9 (peptide)
peptide: AGWIY[Dap]F[2Nal]R[dR]R[Dap][βAla][βAla]K
modifications: linker (positions not given here) via trimesic acid; not fully specified (bridges); printed as Tm(AGWIY)Δ(FΦRrRΔ)-BBK
B19: peptide 5 (peptide)
peptide: GWIY[Dap]F[2Nal]RRR[Dap][dR][βAla]K
modifications: linker N-5-11 via Trimesoyl; not fully specified (N-terminus); printed as Tm(GWIY)Δ(FΦRRRA)-rBK
notes: Bicyclic peptide; D-arginine outside the B ring
B20: peptide 14 (peptide)
peptide: GWIAA[Dap]F[2Nal]R[dR]R[Dap][βAla][βAla]K
modifications: linker (positions not given here) via trimesic acid; not fully specified (bridges); printed as Tm(GWIAA)Δ(FΦRrRΔ)-BBK

Molecular target: NEMO (endogenous, inside cultured cells) (UniProt Q9Y6K9 1-419)
Sequence (Q9Y6K9 whole entry): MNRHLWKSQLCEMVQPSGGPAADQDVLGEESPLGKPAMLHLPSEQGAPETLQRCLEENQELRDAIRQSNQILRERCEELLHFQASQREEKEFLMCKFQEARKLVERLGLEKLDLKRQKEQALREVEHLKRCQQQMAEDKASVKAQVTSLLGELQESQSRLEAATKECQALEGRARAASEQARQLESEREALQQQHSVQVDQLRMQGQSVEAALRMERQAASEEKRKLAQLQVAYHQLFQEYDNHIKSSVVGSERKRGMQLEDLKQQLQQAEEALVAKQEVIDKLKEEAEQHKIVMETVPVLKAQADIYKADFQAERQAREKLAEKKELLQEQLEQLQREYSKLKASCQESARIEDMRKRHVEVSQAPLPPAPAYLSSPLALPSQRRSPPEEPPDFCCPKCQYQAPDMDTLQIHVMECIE
Test: cell-based or functional assay

B1 was tested, and the “inhibition of TNFα-induced NF-κB activation, luciferase in HEK293(Luc) cells, IC50” value was 10000 nM.

Molecular target: T1, Recombinant GST-NEMO (NEMO(1-196)) (UniProt Q9Y6K9 1-196, biotinylated in the library screen)
T1 construct: range 1-196; Expressed in E. coli BL21(DE3); also called NF-κB essential modulator; IKKγ; not shown: glutathione S-transferase (GST) tag encoded by the pGEX4T3 vector
T1 sequence (Q9Y6K9 1-196): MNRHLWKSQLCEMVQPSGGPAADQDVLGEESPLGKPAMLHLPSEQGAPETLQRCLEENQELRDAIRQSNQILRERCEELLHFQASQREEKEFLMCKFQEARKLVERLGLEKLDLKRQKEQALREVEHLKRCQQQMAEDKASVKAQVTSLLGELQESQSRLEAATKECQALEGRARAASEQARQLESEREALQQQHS
Test: HTRF competition IC50 against peptide 7

Compared with B2, B3 is lower in fold lower NEMO-binding affinity against peptide 7: over 100 fold for the first, 16 fold for the second.

Molecular target: T1, Recombinant GST-NEMO (NEMO(1-196))
Test: fluorescence anisotropy (FA), direct binding

For B4, the Kd was 220 nM.

Molecular target: T1, Recombinant GST-NEMO (NEMO(1-196))
Test: HTRF competition IC50, peptide 7 against peptide 6

Binder B1 has a fold increase in binding affinity against peptide 6 of 5.9 fold.

Molecular target: T1, Recombinant GST-NEMO (NEMO(1-196))
Test: HTRF competition IC50, alanine scan against peptide 7

B5 and B6 fall in the same range of fold decrease in potency against peptide 7: 2 to 3 fold for the first, 2 to 3 fold for the second.

Molecular target: T1, Recombinant GST-NEMO (NEMO(1-196))
Test: HTRF competition, GST-NEMO + biotin-IKKβKK/RR(701-745)

Work on B7 yielded an IC50 of 3400 to 28000 nM.

Molecular target: T1, Recombinant GST-NEMO (NEMO(1-196))
Test: HTRF competition, GST-NEMO + biotin-IKKβKK/RR(701-745), peptide 0-100 µM

B8 and B9 are within 1.5-fold of each other in IC50: 2300 nM for the first, 2100 nM for the second.

B10 and B11 are within 1.5-fold of each other in IC50: 1500 nM for the first, 1900 nM for the second.

Going from B12 to B13, the IC50 falls from 2800 nM to 1800 nM (1.6-fold).

Going from B14 to B5, the IC50 rises from 1100 nM to 3000 nM (2.7-fold).

B15 and B6 are within 1.5-fold of each other in IC50: 1200 nM for the first, 1700 nM for the second.

Going from B7 to B16, the IC50 rises from 3400 nM to 5900 nM (1.7-fold). The first is the more potent here.

Going from GWIY[dA][Dap]F[2Nal]R[dR]R[Dap][βAla][βAla]K (linker N-6-12 via Trimesoyl) [peptide 8] to B17, the IC50 falls from 2900 nM to 1200 nM (2.4-fold).

Compared with B3, B18 is 7.3-fold lower in IC50: 16000 nM for the first, 2200 nM for the second.

B19 and B1 are within 1.5-fold of each other in IC50: 1300 nM for the first, 1000 nM for the second.

For B20, the IC50 was 2800 nM.
